Assay results: patent publication US20250011363A1, “OPTIMIZED SHORTENED PEPTIDE THAT BINDS TO ACETYLCHOLINE RECEPTOR, AND USE THEREOF” (SKINMED CO., LTD., priority 2021, published 2025)

molecular target: acetylcholine receptor (Homo sapiens, UniProt P02708); assay: SPR binding affinity (RU) of optimized 5mer/6mer/7mer peptides, Examples 6-7; conditions: 6mer-2 Top sequence; SPR; peptides tested at 10 μM
Summary of the method: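 Peptides were tested at 10 μM by surface plasmon resonance against the receptor, with binding reported as response units. Library sequences were built from frequent (top) or infrequent (bottom) amino acid combinations in 5mer, 6mer-1 and 6mer-2 series.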

Sequence of acetylcholine receptor (P02708 21-457): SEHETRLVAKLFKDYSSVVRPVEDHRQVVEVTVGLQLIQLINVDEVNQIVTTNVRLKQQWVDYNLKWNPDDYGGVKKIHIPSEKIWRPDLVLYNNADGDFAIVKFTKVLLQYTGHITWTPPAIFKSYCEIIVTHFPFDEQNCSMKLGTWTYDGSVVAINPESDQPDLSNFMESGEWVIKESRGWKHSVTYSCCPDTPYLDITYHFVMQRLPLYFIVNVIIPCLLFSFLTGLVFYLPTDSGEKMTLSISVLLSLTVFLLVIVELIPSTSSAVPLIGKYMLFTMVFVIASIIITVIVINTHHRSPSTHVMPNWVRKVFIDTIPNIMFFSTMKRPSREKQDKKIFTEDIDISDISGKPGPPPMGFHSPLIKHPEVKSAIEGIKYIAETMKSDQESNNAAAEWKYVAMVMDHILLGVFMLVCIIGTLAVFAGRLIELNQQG

Substance | Binding affinity [Ru]
6mer-2-92 (KVVCKR) | 131
6mer-2-135 (RWFYKK) | 124
6mer-2-193 (KWISKR) | 127
6mer-2-170 (RQYQKK) | 128
6mer-2-168 (RVFLKR) | 135

same assay, conditions: SPR, Resonance Units; 5mer Bottom sequence (bottom combinations); peptides tested at 10 μM

Substance | Binding affinity [Ru]
5mer-1069 (RPSFK) | 31
5mer-736 (KKHHR) | 24

same assay, conditions: SPR, Resonance Units; peptides tested at 10 μM; 6mer-1 Bottom sequence

Substance | Binding affinity [Ru]
6mer-1-1133 (KKPNIK) | 24
6mer-1-1079 (RKHPVK) | 25
6mer-1-1117 (KKEWFR) | 40
6mer-1-1134 (KRMSWK) | 22
6mer-1-1195 (KRDEDK) | 25
6mer-1-1023 (KRIMHK) | 39

same assay, conditions: SPR, Resonance Units; peptides tested at 10 μM; 6mer-1 Bottom sequence (Table 11)

Substance | Binding affinity [Ru]
6mer-1-697 (RRPTNR) | 13
6mer-1-736 (KKATDK) | 15
6mer-1-635 (KKTTWK) | 33
6mer-1-659 (KKPSKR) | 29
6mer-1-773 (KRTEIR) | 29

same assay, conditions: SPR, Resonance Units; peptides tested at 10 μM; 6mer-2 Bottom sequence

Substance | Binding affinity [Ru]
6mer-2-667 (KHDMRR) | 25
6mer-2-682 (RNMERR) | 33
6mer-2-793 (RMHKKR) | 29
6mer-2-924 (RFDHKK) | 28
6mer-2-898 (KKKDKK) | 16
6mer-2-954 (KCTIRK) | 32
6mer-2-902 (KPDVRK) | 26
6mer-2-741 (KNEKKR) | 30

same assay, conditions: SPR, Resonance Units; peptides tested at 10 μM; 6mer-2 Top sequence

Substance | Binding affinity [Ru]
6mer-2-410 (KRFRKK) | 153
6mer-2-416 (RWRLRR) | 131
6mer-2-427 (RLQRRR) | 147

same assay, conditions: SPR, Resonance Units; peptides tested at 10 μM; 6mer-2 Top sequence (Table 12)

Substance | Binding affinity [Ru]
6mer-2-271 (RLFQKK) | 131
6mer-2-298 (KWICKK) | 149

same assay, conditions: SPR, peptides at 10 μM; 6mer-2 Bottom sequence

Substance | Binding affinity [Ru]
6mer-2-1133 (KMKMKK) | 22
6mer-2-1012 (KASAKK) | 30

same assay, conditions: SPR, peptides tested at 10 μM; 5mer Top sequence

Substance | Binding affinity [Ru]
5mer-489 (KSYSR) | 63
5mer-53 (RLVTR) | 50
5mer-420 (KLFCR) | 84
5mer-477 (KGYSR) | 58
5mer-493 (KSIRR) | 57
5mer-462 (RWQSK) | 69
5mer-321 (RSLSR) | 68
5mer-54 (KWLQR) | 66
5mer-155 (KRYLR) | 57
5mer-352 (RLVRK) | 76
5mer-13 (RLISK) | 52

same assay, conditions: SPR, peptides tested at 10 μM; 5mer Top sequence (top combinations)

Substance | Binding affinity [Ru]
5mer-292 (KLVCK) | 59

same assay, conditions: SPR, peptides tested at 10 μM; 6mer-1 Bottom sequence (Table 11)

Substance | Binding affinity [Ru]
6mer-1-890 (RRTSNK) | 18
6mer-1-811 (KRHCHK) | 16
6mer-1-875 (KKTNGR) | 33
6mer-1-857 (KRPAFK) | 14
6mer-1-910 (KRPTIR) | 42
6mer-1-851 (RRYMEK) | 30

same assay, conditions: SPR, peptides tested at 10 μM; 6mer-1 Top sequence

Substance | Binding affinity [Ru]
6mer-1-466 (KRSICR) | 148
6mer-1-435 (RKWRCK) | 135
6mer-1-448 (RKRFSR) | 141
6mer-1-599 (KKLYQR) | 124
6mer-1-501 (KRVLYK) | 154
6mer-1-410 (KRVLRK) | 148

same assay, conditions: SPR, peptides tested at 10 μM; 6mer-1 Top sequence (top combinations)

Substance | Binding affinity [Ru]
6mer-1-26 (KKRVLR) | 123
6mer-1-150 (RKRQCR) | 142
6mer-1-88 (KRWICK) | 121
6mer-1-138 (RKVVTR) | 124
6mer-1-109 (KKRYLR) | 148
6mer-1-155 (RRVRSR) | 127

same assay, conditions: SPR; peptides tested at 10 μM; 5mer Bottom sequence

Substance | Binding affinity [Ru]
5mer-882 (REEGR) | 18
5mer-854 (RNTER) | 21
5mer-1170 (KHSEK) | 28
5mer-841 (KNEMR) | 22
